Test [1] deals with PD-L1 (human) (UniProt Q9NZQ7). The test is described as follows: flow cytometry, Expi293F cells transfected with PD-L1. (In general: In flow cytometry, cells or beads pass a laser one at a time.)
Test [2] deals with human CTLA-4 (huCTLA4), on stably transduced CHO cells (human) (UniProt P16410). The test is described as follows: flow cytometry on CHO cells stably expressing huCTLA4, 33.3 nM Fc fusion, PE anti-human Fc.
For test [3], the target named is human PD-L1 (huPD-L1), on stably transduced CHO cells (human) (UniProt Q9NZQ7). The test is described as follows: flow cytometry on CHO cells stably expressing huPD-L1, 33.3 nM Fc fusion, PE anti-human Fc.
Test [4] addresses CD28, endogenously expressed on Jurkat/IL2 reporter cells (human) (UniProt P10747). The test is described as follows: flow cytometry on Jurkat/IL2 reporter cells (endogenous CD28), 33.3 nM Fc fusion, PE anti-human Fc.
The target in test [5] is CD28 (human) (UniProt P10747). The test is described as follows: flow cytometry, Expi293F cells transfected with CD28.
Test [6] addresses PD-L1 (human) (UniProt Q9NZQ7). The test is described as follows: flow cytometry, CHO cells stably expressing PD-L1.
Target sequence in this assay (Q9NZQ7 19-290): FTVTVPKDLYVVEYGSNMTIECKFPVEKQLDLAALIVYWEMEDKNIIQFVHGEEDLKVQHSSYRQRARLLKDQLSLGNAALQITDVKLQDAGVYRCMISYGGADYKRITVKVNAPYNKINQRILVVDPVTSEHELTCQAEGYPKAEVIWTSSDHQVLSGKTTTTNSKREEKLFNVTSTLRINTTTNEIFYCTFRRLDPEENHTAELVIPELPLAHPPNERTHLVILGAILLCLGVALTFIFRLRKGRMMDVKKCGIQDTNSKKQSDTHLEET
Test [7] has as its target CD28 (human) (UniProt P10747). The test is described as follows: flow cytometry, Jurkat cells (CD28).
Test [8] has as its target human CTLA-4 (human) (UniProt P16410). The test is described as follows: flow cytometry, CHO cells stably expressing CTLA4.
Target sequence in this assay (P16410 36-223): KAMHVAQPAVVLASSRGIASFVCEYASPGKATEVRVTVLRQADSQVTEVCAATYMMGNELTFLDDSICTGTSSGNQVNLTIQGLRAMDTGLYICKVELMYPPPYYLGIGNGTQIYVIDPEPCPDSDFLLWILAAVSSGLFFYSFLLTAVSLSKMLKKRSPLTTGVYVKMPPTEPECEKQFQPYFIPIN
For test [9] the target is unchanged. The test is described as follows: flow cytometry, Expi293F cells transfected with CTLA-4.
Test [10] has the same target. The test is described as follows: flow cytometry, CHO cells expressing huCTLA4.
Target sequence in this assay (P16410 36-223): as above
Test [11] deals with PD-L1 (human) (UniProt Q9NZQ7). The test is described as follows: flow cytometry, CHO cells expressing huPD-L1.
Target sequence in this assay (Q9NZQ7 19-290): as the sequence (Q9NZQ7 19-290) above

Chain of human CTLA-4 (huCTLA4), on stably transduced CHO cells (human) (P16410 36-223): as the sequence (P16410 36-223) above

CD80 L70Q/A91G/N144D ECD-Fc (Fc fusion): in the test with PD-L1 (human) [1], the MFI was found to be 6 MFI.
In the case of “variant CD80 IgV-Fc E35D/M43I/M47L/L85M (Fc fusion)”, the MFI at 33.3 nM in test [2] amounted to 24600 MFI; in [3] it was 4880 MFI.
Consider “variant CD80 IgV-Fc E35D/D46E/A91G (Fc fusion)”, for which the MFI at 33.3 nM was 3450 MFI in test [4], 32200 MFI in [2] and 2820 MFI in test [3].
In the test with CD28 (human) [5], “CD80 M38T/L70Q/E77G/A91G/I118V/T120S/T130A/N152T ECD-Fc (Fc fusion)” registered an MFI of 61 MFI.
Consider “CD80 Y31H/T41G/M43L/L70Q/A91G/I118V/T120S/I126V/T130A ECD-Fc (Fc fusion)”, for which the MFI in the test with PD-L1 (human) [1] was 6 MFI.
For “variant CD80 IgV-Fc M43I/M47L/A71G (Fc fusion)”, the MFI at 33.3 nM in [4] came out at 1000 MFI; in test [2], 23300 MFI; in test [3], 7760 MFI.
With “CD80 IgV-Fc H18Y/E35D/V68M/A71G/R94Q/E95V (Fc fusion)”, the Fold change to WT CD80 was found to be 25.9 fold in the test with PD-L1 (human) [6] and 18.6 fold with human CTLA-4 (human) [8]. The MFI at 33.3 nM with PD-L1 (human) [6] is 1840 MFI; with CD28 (human) [7], 455 MFI; in the test with human CTLA-4 (human) [8], 19400 MFI.
For “CD80 T28S/L70Q/A91G/E95K/I118V/T120S/I126V/T130A/K169E ECD-Fc (Fc fusion)”, the MFI with CD28 (human) [5] is 32 MFI; with PD-L1 (human) [1], 6 MFI; with human CTLA-4 (human) [9] it was 65 MFI. Besides, the parental ratio with CD28 (human) [5] is 0.34; with PD-L1 (human) [1], 0.08; with human CTLA-4 (human) [9], 0.31.
With “variant CD80 IgV-Fc Q33R/E35D/M47V/N48K/L85M/F92L (Fc fusion)”, the MFI at 33.3 nM turned out to be 2680 MFI with human CTLA-4 (human) [10] and 21400 MFI in the test with PD-L1 (human) [11].
In the case of WT CD80 ECD-Fc H22.6 (Fc fusion), the MFI at 33.3 nM was determined as 43 MFI in test [4] and 46.3 MFI in [3].
As for “variant CD80 IgV-Fc E35D/M47L/A71G (Fc fusion)”, the MFI at 33.3 nM in test [2] came to 20600 MFI; in test [3], 6640 MFI.
As to “variant CD80 IgV-Fc E35D/M43I/M47V/K89N (Fc fusion)”, the MFI at 33.3 nM with human CTLA-4 (human) [10] was 278000 MFI; in the test with PD-L1 (human) [11] it was 19200 MFI.
With “variant CD80 IgV-Fc E35D/M47V/N48K/L85M (Fc fusion)”, the MFI at 33.3 nM is 413 MFI in test [4] and 5660 MFI in test [3].
As for “variant CD80 IgV-Fc H18Y/E35D (Fc fusion)”, the MFI at 33.3 nM in test [4] stood at 479 MFI; in test [2], 26300 MFI; in [3], 3530 MFI.
With “variant CD80 IgV-Fc E35D/M47V/T62A/A71D/K93E (Fc fusion)”, the values for the MFI at 33.3 nM with human CTLA-4 (human) [10] and in the test with PD-L1 (human) [11] were 226000 MFI and 693 MFI, respectively.
With “CD80 R29H/E52G/D90N/I118V/T120S/T130A ECD-Fc (Fc fusion)”, the values for the MFI in the test with CD28 (human) [5] and with human CTLA-4 (human) [9] were 66 MFI and 141 MFI, respectively.
“variant CD80 IgV-Fc E35D/N48K/L72V (Fc fusion)”: the MFI at 33.3 nM in test [4] amounted to 582 MFI; in [3], 3030 MFI.
“variant CD80 IgV-Fc I30V/E35D/M47V/A71G/A91V (Fc fusion)”: the figures for the MFI at 33.3 nM in the test with human CTLA-4 (human) [10] and with PD-L1 (human) [11] were 205000 MFI and 43900 MFI, respectively.
“CD80 K36E/I67T/L70Q/A91G/I118V/T120S/T130A/N152T ECD-Fc (Fc fusion)” showed an MFI with CD28 (human) [5] of 8 MFI.
Take CD80 A91G ECD-Fc (Fc fusion): the MFI with PD-L1 (human) [1] was determined as 85 MFI; with human CTLA-4 (human) [9] it was 200 MFI. Further, the parental ratio in the test with PD-L1 (human) [1] came to 1.21.
In the test with PD-L1 (human) [11], “variant CD80 IgV-Fc E35D/M38T/D46E/M47V/N48S (Fc fusion)” displayed an MFI at 33.3 nM of 19400 MFI.
Consider “variant CD80 IgV-Fc V22A/E35D/M47L/A71G (Fc fusion)”, for which the MFI at 33.3 nM in test [4] was 990 MFI; in test [2] it was 21900 MFI; in [3], 8170 MFI.

These data come from patent US20220177587A1, “METHODS AND USES OF VARIANT CD80 FUSION PROTEINS AND RELATED CONSTRUCTS” (Alpine Immune Sciences, Inc., priority 2018, published 2022).
